{"source": "paper PMC8660895", "about": "“Hedgehog-Interacting Protein is a multimodal antagonist of Hedgehog signalling” (Nature Communications, 2021)", "key": {"[1]": {"target": "heparan sulphate (HS)", "test": "SPR", "settings": "GAGs immobilised on the chip; [HHIP-C] 0-40 µM; parent: 0.5 µM"}, "[2]": {"target": "heparin", "test": "SPR", "settings": "GAGs immobilised on the chip; [HHIP-C] 0-40 µM; parent: 0.2 µM"}, "[3]": {"target": "chondroitin sulphate (CS)", "test": "SPR", "settings": "GAGs immobilised on the chip; [HHIP-C] 0-40 µM; parent: 0.7 µM"}, "[4]": {"target": "HHIP N-terminal domain (HHIP-N) (human) (UniProt Q96QV1)", "test": "SEC-MALS; HHIP-N on S200 10/30 column; 10 mM HEPES pH 7.5, 150 mM NaCl; 48–192 μM injected"}, "[5]": {"target": "T1, HHIP-N (Homo sapiens, UniProt Q96QV1)", "T1 construct": "EndoF1-deglycosylated for crystals", "T1 sequence (Q96QV1 39-209)": "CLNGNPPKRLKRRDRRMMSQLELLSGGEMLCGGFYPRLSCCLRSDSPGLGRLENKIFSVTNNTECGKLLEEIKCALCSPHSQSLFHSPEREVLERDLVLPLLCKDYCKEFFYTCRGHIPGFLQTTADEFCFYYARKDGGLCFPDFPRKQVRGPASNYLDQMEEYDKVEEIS", "test": "isothermal titration calorimetry", "format": "binding", "settings": "pH 7.5, 25 °C, 150 mM NaCl, 3% isopropanol; PEG length and linkage of the conjugate not told"}, "[6]": {"target": "T2, HHIP-C (Homo sapiens, UniProt Q96QV1)", "T2 construct": "C-terminal domain (beta-propeller + 2 EGF repeats), residues 213-670, C-terminal His6 tag, HEK293T with kifunensine; EndoF1-deglycosylated for crystals; mostly monomer without GAG, anti-parallel dimer in crystal", "T2 sequence (Q96QV1 213-670)": "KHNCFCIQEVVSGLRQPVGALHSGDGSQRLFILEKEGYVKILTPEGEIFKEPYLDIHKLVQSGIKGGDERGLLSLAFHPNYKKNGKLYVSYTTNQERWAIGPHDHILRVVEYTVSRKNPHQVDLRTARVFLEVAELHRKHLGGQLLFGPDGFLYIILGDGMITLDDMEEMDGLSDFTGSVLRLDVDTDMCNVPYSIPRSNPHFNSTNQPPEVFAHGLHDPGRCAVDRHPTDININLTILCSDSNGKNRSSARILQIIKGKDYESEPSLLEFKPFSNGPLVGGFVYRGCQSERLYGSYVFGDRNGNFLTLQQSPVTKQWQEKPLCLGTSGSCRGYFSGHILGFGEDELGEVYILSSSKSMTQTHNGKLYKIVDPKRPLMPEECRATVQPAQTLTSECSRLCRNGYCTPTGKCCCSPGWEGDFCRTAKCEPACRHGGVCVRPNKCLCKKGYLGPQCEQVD", "test": "X-ray crystallography (molecular replacement)", "format": "binding", "settings": "co-crystallised with 10 mM SOS, pH 8.5; two SOS molecules per chain, same site as heparin"}, "[7]": {"target": "the molecule itself", "test": "AUC; sedimentation velocity; HHIP-C alone at 1 mg/mL; 10 mM HEPES pH 7.5, 120 mM NaCl; 20 °C; c(s) distributions"}}, "note": "“And” between values parts separate entries of the source, which are not always exact repeats. Equal values may be shown once.", "data": [{"molecule": "HHIP C-terminal domain (HHIP-C) (from UniProt Q96QV1) K277E; R328E; R350E; K569E; R610E; R613E", "values": [{"measurement": "Kd", "setting": "[1]", "value": 40, "unit": "µM"}, {"measurement": "Kd", "setting": "[2]", "value": 110, "unit": "µM"}, {"measurement": "Kd", "setting": "[3]", "value": 30, "unit": "µM"}]}, {"molecule": "HHIP N-terminal domain (HHIP-N) (from UniProt Q96QV1 39-209) (domain or fragment)", "values": [{"measurement": "stoichiometry N", "setting": "[4]", "value": 2}]}, {"molecule": "PEG-cholesterol", "values": [{"measurement": "Kd", "setting": "[5]", "value": 23, "unit": "µM"}]}, {"molecule": "O=S(=O)(O)OC[C@H]1O[C@@](COS(=O)(=O)O)(O[C@H]2O[C@H](COS(=O)(=O)O)[C@@H](OS(=O)(=O)O)[C@H](OS(=O)(=O)O)[C@H]2OS(=O)(=O)O)[C@@H](OS(=O)(=O)O)[C@@H]1OS(=O)(=O)O", "note": "[sucrose octasulphate]", "values": [{"measurement": "X-ray crystallography (molecular replacement)", "setting": "[6]", "value": "We also determined the crystal structure of a HHIP-C:SOS complex"}]}, {"molecule": "HHIP C-terminal domain (HHIP-C) (domain or fragment, human, UniProt Q96QV1 213-670, looked up, Cloned in pHLsec; For crystallisation the protein was deglycosylated with endoglycosidase F1; also called HHIP-C WT; apo HHIP-C; source: HEK293T, transient transfection with kifunensine, purified from conditioned medium (HisTrap, SEC)) KHNCFCIQEVVSGLRQPVGALHSGDGSQRLFILEKEGYVKILTPEGEIFKEPYLDIHKLVQSGIKGGDERGLLSLAFHPNYKKNGKLYVSYTTNQERWAIGPHDHILRVVEYTVSRKNPHQVDLRTARVFLEVAELHRKHLGGQLLFGPDGFLYIILGDGMITLDDMEEMDGLSDFTGSVLRLDVDTDMCNVPYSIPRSNPHFNSTNQPPEVFAHGLHDPGRCAVDRHPTDININLTILCSDSNGKNRSSARILQIIKGKDYESEPSLLEFKPFSNGPLVGGFVYRGCQSERLYGSYVFGDRNGNFLTLQQSPVTKQWQEKPLCLGTSGSCRGYFSGHILGFGEDELGEVYILSSSKSMTQTHNGKLYKIVDPKRPLMPEECRATVQPAQTLTSECSRLCRNGYCTPTGKCCCSPGWEGDFCRTAKCEPACRHGGVCVRPNKCLCKKGYLGPQCEQVD", "values": [{"measurement": "stoichiometry N", "setting": "[7]", "value": "2 and 3"}]}]}
